Measurements published in patent US20250092426, “CAS ENDONUCLEASES AND RELATED METHODS” (Flagship Pioneering Innovations VII, LLC, published 2025).

Target: T1, CasEnd-12 (synthetic construct)
T1 chain: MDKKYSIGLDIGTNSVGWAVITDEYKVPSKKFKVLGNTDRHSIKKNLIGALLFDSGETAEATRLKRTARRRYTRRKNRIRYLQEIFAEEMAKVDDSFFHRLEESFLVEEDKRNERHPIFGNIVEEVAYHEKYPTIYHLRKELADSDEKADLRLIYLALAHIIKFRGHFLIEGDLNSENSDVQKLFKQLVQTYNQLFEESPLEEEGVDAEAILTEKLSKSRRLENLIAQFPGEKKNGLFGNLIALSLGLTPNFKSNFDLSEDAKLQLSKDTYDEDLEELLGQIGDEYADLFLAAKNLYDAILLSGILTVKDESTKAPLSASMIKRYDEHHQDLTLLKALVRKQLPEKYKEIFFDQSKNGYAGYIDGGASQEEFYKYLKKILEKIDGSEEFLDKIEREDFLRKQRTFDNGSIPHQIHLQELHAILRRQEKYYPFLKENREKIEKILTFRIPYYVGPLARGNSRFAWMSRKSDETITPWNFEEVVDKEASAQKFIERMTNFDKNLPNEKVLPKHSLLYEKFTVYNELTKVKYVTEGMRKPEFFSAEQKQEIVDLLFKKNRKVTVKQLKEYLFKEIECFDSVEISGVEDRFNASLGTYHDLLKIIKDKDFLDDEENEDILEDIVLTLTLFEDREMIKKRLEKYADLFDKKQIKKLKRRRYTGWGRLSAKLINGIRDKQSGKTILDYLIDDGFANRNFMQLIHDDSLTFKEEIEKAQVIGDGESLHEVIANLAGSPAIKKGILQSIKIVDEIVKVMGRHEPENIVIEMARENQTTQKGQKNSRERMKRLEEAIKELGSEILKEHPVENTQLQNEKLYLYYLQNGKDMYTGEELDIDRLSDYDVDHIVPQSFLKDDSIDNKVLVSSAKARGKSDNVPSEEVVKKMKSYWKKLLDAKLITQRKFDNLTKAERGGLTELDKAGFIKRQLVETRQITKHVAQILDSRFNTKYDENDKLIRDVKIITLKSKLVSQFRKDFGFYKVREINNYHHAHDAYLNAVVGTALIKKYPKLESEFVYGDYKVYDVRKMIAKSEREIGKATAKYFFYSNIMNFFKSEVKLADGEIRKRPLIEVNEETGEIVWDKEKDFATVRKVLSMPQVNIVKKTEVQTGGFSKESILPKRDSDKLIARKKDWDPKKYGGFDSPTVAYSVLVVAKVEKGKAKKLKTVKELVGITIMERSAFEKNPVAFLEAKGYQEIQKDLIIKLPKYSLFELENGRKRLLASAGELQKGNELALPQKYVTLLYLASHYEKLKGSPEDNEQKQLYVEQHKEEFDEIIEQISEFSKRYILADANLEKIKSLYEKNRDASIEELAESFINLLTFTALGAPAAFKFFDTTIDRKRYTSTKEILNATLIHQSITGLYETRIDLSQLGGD
Assay: cell_activity; +++; HEK293T; PAM not stated
In short: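 BFP-to-GFP conversion via reverse transcriptase fusion with each Cas endonuclease plus template RNA: 200 ng of each plasmid nucleofected into 250,000 BFP-expressing HEK293T cells (program DS-150). Percent GFP+ cells by flow cytometry at day 4 measured editing.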

B1: BFP-to-GFP template RNA ; BFP reporter protospacer (ssRNA ; dsDNA)
RNA: GCCGAAGCACUGCACGCCGUGUUUUAGAGCUAGAAAUAGCAAGUUAAAAUAAGGCUAGUCCGUUAUCAACUUGAAAAAGUGGCACCGAGUCGGUGCACCCUGACGUACGGCGUGCAGUGCUU
DNA 1: GCCGAAGCACTGCACGCCGT
DNA 2: ACGGCGTGCAGTGCTTCGGC
- activity: ≥ 100 % of reference
